Article PMC11059001

Experiments:
complement C1q (human) [1] = molecular target: complement C1q (human) (UniProt P02745); assay: MST; fluorescently labelled C1q (RED-NHS) 40 nM; TsCRT, TsCRT^Δ, mutants or P^TsCRT gradient-diluted; 50 mM Hepes, 150 mM NaCl, 2 mM CaCl2, 0.05% Tween 20, pH 7.4; Monolith NT.115, LED power 20%, MST power 50%
complement C1q (human) [2] = molecular target: complement C1q (human) (UniProt P02745); assay: MST; with 20 uM TsCRT^Δ P143A/E144A competitor
complement C1q (human) [3] = molecular target: complement C1q (human) (UniProt P02745); assay: MST; with 20 uM TsCRT^Δ I140A/G142A competitor
complement C1q (human) [4] = molecular target: complement C1q (human) (UniProt P02745); assay: MST; with 20 uM TsCRT^Δ H46A/K47A/D49A competitor
complement C1q (human) [5] = molecular target: complement C1q (human) (UniProt P02745); assay: MST; IgG incubated with fluorescently labelled C1q (40 nM) alone, no competitor; 50 mM Hepes, 150 mM NaCl, 2 mM CaCl2, 0.05% Tween 20, pH 7.4; LED power 60%, MST power 50%
complement C1q (human) [6] = molecular target: complement C1q (human) (UniProt P02745); assay: MST; competitive binding: IgG with fluorescently labelled C1q (40 nM) in the presence of 20 µM TsCRT^Δ, a mutant or P^TsCRT; 50 mM Hepes, 150 mM NaCl, 2 mM CaCl2, 0.05% Tween 20, pH 7.4; LED power 60%, MST power 50%

Sequence of complement C1q (human) (P02745 23-245, chain 1 of 3): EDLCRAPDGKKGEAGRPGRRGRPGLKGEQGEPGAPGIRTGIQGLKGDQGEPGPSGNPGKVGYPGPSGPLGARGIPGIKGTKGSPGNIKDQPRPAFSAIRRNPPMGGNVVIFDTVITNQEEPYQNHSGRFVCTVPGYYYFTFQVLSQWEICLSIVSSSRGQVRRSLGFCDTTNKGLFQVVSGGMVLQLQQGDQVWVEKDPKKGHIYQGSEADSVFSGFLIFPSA
Sequence of complement C1q (human) (P02746 28-253, chain 2 of 3, further chain): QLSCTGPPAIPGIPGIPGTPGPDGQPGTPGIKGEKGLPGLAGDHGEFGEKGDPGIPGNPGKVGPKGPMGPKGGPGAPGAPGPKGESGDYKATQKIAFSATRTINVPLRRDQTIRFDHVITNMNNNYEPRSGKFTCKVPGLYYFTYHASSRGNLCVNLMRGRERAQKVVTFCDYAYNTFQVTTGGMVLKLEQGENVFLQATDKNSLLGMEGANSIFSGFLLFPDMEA
Sequence of complement C1q (human) (P02747 29-245, chain 3 of 3, further chain): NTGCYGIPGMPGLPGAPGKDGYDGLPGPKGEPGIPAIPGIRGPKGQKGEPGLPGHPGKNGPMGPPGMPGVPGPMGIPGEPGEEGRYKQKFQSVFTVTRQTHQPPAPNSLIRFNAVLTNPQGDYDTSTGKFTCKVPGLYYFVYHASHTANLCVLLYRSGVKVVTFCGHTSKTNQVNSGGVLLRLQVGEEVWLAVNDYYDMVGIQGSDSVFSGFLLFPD

Trichinella spiralis calreticulin, full-length (natural protein)
Kd (complement C1q (human) [1]): 258 µM

TsCRT^Δ mutant D129A (domain or fragment)
Kd (complement C1q (human) [1]): 124 µM

TsCRT^Δ mutant H46A/K47A/D49A (domain or fragment)
Kd (complement C1q (human) [1]): 54.5 µM

TsCRT^Δ mutant I140A/G142A (domain or fragment)
Kd (complement C1q (human) [1]): 54.4 µM

TsCRT^Δ mutant P143A/E144A (domain or fragment)
Kd (complement C1q (human) [1]): 66.8 µM

human IgG
Kd (complement C1q (human) [2]): 4.18 µM
Kd (complement C1q (human) [3]): 5.51 µM
Kd (complement C1q (human) [4]): 3.94 µM

human IgG (antibody)
Kd (complement C1q (human) [5]): 140 nM
KD of C1q-IgG with P^TsCRT (20 µM) (complement C1q (human) [6]): 172 µM
KD of C1q-IgG with TsCRT^Δ (20 µM) (complement C1q (human) [6]): 409 µM
KD of C1q-IgG with the mutant D129A (complement C1q (human) [6]): 0.32 µM

truncated Trichinella spiralis calreticulin TsCRT^Δ (22-209, GSG linker, 305-364) (domain or fragment)
Kd (complement C1q (human) [1]): 9.03 µM
